According to patent US20160272683A1 (Novo Nordisk, published 2016):
Numbered stars: 1 amine (or outer) side, 2 acyl side, 3 side chain; on linkers, the order of the positions; unused ones are H or OH. * marks the point of attachment. C20 diacid = O=C(O)CCCCCCCCCCCCCCCCCCC(=O)*; C18 diacid = O=C(O)CCCCCCCCCCCCCCCCC(=O)*; γGlu = O=C(O)[C@H](CCC(=O)[*:2])N[*:1]

Experiments:
[1] = biological target: T1, human amylin 3(a) receptor (human calcitonin receptor co-expressed with RAMP-3) (human, UniProt P30988 25-474; O60896 24-148, limits assumed); test: cell-based or functional assay
T1 sequence (looked up) 1: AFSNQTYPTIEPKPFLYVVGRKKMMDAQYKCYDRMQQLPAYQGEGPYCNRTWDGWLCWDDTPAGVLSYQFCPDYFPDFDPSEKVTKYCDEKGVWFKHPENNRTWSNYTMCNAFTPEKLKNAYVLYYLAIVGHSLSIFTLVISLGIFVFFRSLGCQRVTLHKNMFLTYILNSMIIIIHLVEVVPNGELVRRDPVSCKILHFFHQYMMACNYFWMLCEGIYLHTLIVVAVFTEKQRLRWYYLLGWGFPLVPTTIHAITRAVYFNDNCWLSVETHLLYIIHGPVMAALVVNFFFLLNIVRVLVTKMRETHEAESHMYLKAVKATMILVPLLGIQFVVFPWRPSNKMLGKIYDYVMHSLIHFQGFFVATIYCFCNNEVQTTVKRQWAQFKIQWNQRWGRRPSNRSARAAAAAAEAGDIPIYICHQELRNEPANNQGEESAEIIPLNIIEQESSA
T1 sequence (looked up) 2: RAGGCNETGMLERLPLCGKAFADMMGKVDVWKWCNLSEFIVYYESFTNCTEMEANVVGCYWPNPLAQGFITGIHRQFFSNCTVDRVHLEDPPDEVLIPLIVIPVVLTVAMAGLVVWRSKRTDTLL

[2] = biological target: T2, human calcitonin receptor (human, UniProt P30988 25-474); test: cell-based or functional assay
T2 sequence (looked up): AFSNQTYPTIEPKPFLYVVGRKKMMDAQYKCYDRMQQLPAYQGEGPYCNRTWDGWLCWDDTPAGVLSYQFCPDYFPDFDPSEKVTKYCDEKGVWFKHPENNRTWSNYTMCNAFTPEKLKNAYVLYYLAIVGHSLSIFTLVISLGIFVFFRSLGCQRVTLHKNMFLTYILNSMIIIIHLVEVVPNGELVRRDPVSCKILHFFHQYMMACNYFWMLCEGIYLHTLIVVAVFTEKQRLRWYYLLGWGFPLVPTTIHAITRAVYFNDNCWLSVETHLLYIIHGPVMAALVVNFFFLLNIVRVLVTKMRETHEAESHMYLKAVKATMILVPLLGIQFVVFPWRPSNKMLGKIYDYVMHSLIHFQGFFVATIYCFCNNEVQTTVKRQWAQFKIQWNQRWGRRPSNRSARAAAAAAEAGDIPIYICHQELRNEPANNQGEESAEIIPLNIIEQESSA

B1: [N-terminal(C20 diacid-gGlu), des1, 4G, 15E, 21Q, 23Y, 30S, 31G, 32T, 33Y]mimylin (peptide)
peptide: {C20 diacid-γGlu}-ASGLSTAALGRLSEELHELQTYPRTETGSGTY-NH2
SMILES: CC(C)C[C@H](NC(=O)CNC(=O)[C@H](CO)NC(=O)[C@H](C)NC(=O)CC[C@H](NC(=O)CCCCCCCCCCCCCCCCCCC(=O)O)C(=O)O)C(=O)N[C@@H](CO)C(=O)N[C@H](C(=O)N[C@@H](C)C(=O)N[C@@H](C)C(=O)N[C@@H](CC(C)C)C(=O)NCC(=O)N[C@@H](CCCNC(=N)N)C(=O)N[C@@H](CC(C)C)C(=O)N[C@@H](CO)C(=O)N[C@@H](CCC(=O)O)C(=O)N[C@@H](CCC(=O)O)C(=O)N[C@@H](CC(C)C)C(=O)N[C@@H](Cc1c[nH]cn1)C(=O)N[C@@H](CCC(=O)O)C(=O)N[C@@H](CC(C)C)C(=O)N[C@@H](CCC(N)=O)C(=O)N[C@H](C(=O)N[C@@H](Cc1ccc(O)cc1)C(=O)N1CCC[C@H]1C(=O)N[C@@H](CCCNC(=N)N)C(=O)N[C@H](C(=O)N[C@@H](CCC(=O)O)C(=O)N[C@H](C(=O)NCC(=O)N[C@@H](CO)C(=O)NCC(=O)N[C@H](C(=O)N[C@@H](Cc1ccc(O)cc1)C(N)=O)[C@@H](C)O)[C@@H](C)O)[C@@H](C)O)[C@@H](C)O)[C@@H](C)O
- hAmylin-R funct. EC50 (pM) [1]: 36 pM
- hCTR funct. EC50 (pM) [2]: 21 pM

B2: [N-terminal(C20 diacid-gGlu), des1, 9V, 15Q, 21Q, 23Y, 30S, 31G, 32T, 33Y]mimylin (peptide)
peptide: {C20 diacid-γGlu}-ASELSTAVLGRLSQELHELQTYPRTETGSGTY-NH2
SMILES: CC(C)C[C@H](NC(=O)[C@H](CCCNC(=N)N)NC(=O)CNC(=O)[C@H](CC(C)C)NC(=O)[C@@H](NC(=O)[C@H](C)NC(=O)[C@@H](NC(=O)[C@H](CO)NC(=O)[C@H](CC(C)C)NC(=O)[C@H](CCC(=O)O)NC(=O)[C@H](CO)NC(=O)[C@H](C)NC(=O)CC[C@H](NC(=O)CCCCCCCCCCCCCCCCCCC(=O)O)C(=O)O)[C@@H](C)O)C(C)C)C(=O)N[C@@H](CO)C(=O)N[C@@H](CCC(N)=O)C(=O)N[C@@H](CCC(=O)O)C(=O)N[C@@H](CC(C)C)C(=O)N[C@@H](Cc1c[nH]cn1)C(=O)N[C@@H](CCC(=O)O)C(=O)N[C@@H](CC(C)C)C(=O)N[C@@H](CCC(N)=O)C(=O)N[C@H](C(=O)N[C@@H](Cc1ccc(O)cc1)C(=O)N1CCC[C@H]1C(=O)N[C@@H](CCCNC(=N)N)C(=O)N[C@H](C(=O)N[C@@H](CCC(=O)O)C(=O)N[C@H](C(=O)NCC(=O)N[C@@H](CO)C(=O)NCC(=O)N[C@H](C(=O)N[C@@H](Cc1ccc(O)cc1)C(N)=O)[C@@H](C)O)[C@@H](C)O)[C@@H](C)O)[C@@H](C)O
- hAmylin-R funct. EC50 (pM) [1]: 76 pM
- hCTR funct. EC50 (pM) [2]: 60 pM

B3: [N-terminal(C20 diacid-gGlu), des1, 4Q, 9V, 15Q, 21Q, 23Y, 30S, 31Q, 32T, 33Y]mimylin (peptide)
peptide: {C20 diacid-γGlu}-ASQLSTAVLGRLSQELHELQTYPRTETGSQTY-NH2
SMILES: CC(C)C[C@H](NC(=O)[C@H](CCCNC(=N)N)NC(=O)CNC(=O)[C@H](CC(C)C)NC(=O)[C@@H](NC(=O)[C@H](C)NC(=O)[C@@H](NC(=O)[C@H](CO)NC(=O)[C@H](CC(C)C)NC(=O)[C@H](CCC(N)=O)NC(=O)[C@H](CO)NC(=O)[C@H](C)NC(=O)CC[C@H](NC(=O)CCCCCCCCCCCCCCCCCCC(=O)O)C(=O)O)[C@@H](C)O)C(C)C)C(=O)N[C@@H](CO)C(=O)N[C@@H](CCC(N)=O)C(=O)N[C@@H](CCC(=O)O)C(=O)N[C@@H](CC(C)C)C(=O)N[C@@H](Cc1c[nH]cn1)C(=O)N[C@@H](CCC(=O)O)C(=O)N[C@@H](CC(C)C)C(=O)N[C@@H](CCC(N)=O)C(=O)N[C@H](C(=O)N[C@@H](Cc1ccc(O)cc1)C(=O)N1CCC[C@H]1C(=O)N[C@@H](CCCNC(=N)N)C(=O)N[C@H](C(=O)N[C@@H](CCC(=O)O)C(=O)N[C@H](C(=O)NCC(=O)N[C@@H](CO)C(=O)N[C@@H](CCC(N)=O)C(=O)N[C@H](C(=O)N[C@@H](Cc1ccc(O)cc1)C(N)=O)[C@@H](C)O)[C@@H](C)O)[C@@H](C)O)[C@@H](C)O
- hAmylin-R funct. EC50 (pM) [1]: 62 pM
- hCTR funct. EC50 (pM) [2]: 63 pM

B4: [N-terminal(C18 diacid), 17I]mimylin (peptide)
peptide: {C18 diacid}-EASELSTAALGRLSAEIHELATLPRTETGPESP-NH2
SMILES: CC[C@H](C)[C@H](NC(=O)[C@H](CCC(=O)O)NC(=O)[C@H](C)NC(=O)[C@H](CO)NC(=O)[C@H](CC(C)C)NC(=O)[C@H](CCCNC(=N)N)NC(=O)CNC(=O)[C@H](CC(C)C)NC(=O)[C@H](C)NC(=O)[C@H](C)NC(=O)[C@@H](NC(=O)[C@H](CO)NC(=O)[C@H](CC(C)C)NC(=O)[C@H](CCC(=O)O)NC(=O)[C@H](CO)NC(=O)[C@H](C)NC(=O)[C@H](CCC(=O)O)NC(=O)CCCCCCCCCCCCCCCCC(=O)O)[C@@H](C)O)C(=O)N[C@@H](Cc1c[nH]cn1)C(=O)N[C@@H](CCC(=O)O)C(=O)N[C@@H](CC(C)C)C(=O)N[C@@H](C)C(=O)N[C@H](C(=O)N[C@@H](CC(C)C)C(=O)N1CCC[C@H]1C(=O)N[C@@H](CCCNC(=N)N)C(=O)N[C@H](C(=O)N[C@@H](CCC(=O)O)C(=O)N[C@H](C(=O)NCC(=O)N1CCC[C@H]1C(=O)N[C@@H](CCC(=O)O)C(=O)N[C@@H](CO)C(=O)N1CCC[C@H]1C(N)=O)[C@@H](C)O)[C@@H](C)O)[C@@H](C)O
- hAmylin-R funct. EC50 (pM) [1]: 7 pM
- hCTR funct. EC50 (pM) [2]: 5 pM

B5: [N-terminal(C20 diacid-gGlu), 4Q, 9V, 15Q, 21Q, 23Y, 27G, 30S, 31G, 32T, 33Y]mimylin (peptide)
peptide: {C20 diacid-γGlu}-EASQLSTAVLGRLSQELHELQTYPRTGTGSGTY-NH2
SMILES: CC(C)C[C@H](NC(=O)[C@H](CCCNC(=N)N)NC(=O)CNC(=O)[C@H](CC(C)C)NC(=O)[C@@H](NC(=O)[C@H](C)NC(=O)[C@@H](NC(=O)[C@H](CO)NC(=O)[C@H](CC(C)C)NC(=O)[C@H](CCC(N)=O)NC(=O)[C@H](CO)NC(=O)[C@H](C)NC(=O)[C@H](CCC(=O)O)NC(=O)CC[C@H](NC(=O)CCCCCCCCCCCCCCCCCCC(=O)O)C(=O)O)[C@@H](C)O)C(C)C)C(=O)N[C@@H](CO)C(=O)N[C@@H](CCC(N)=O)C(=O)N[C@@H](CCC(=O)O)C(=O)N[C@@H](CC(C)C)C(=O)N[C@@H](Cc1c[nH]cn1)C(=O)N[C@@H](CCC(=O)O)C(=O)N[C@@H](CC(C)C)C(=O)N[C@@H](CCC(N)=O)C(=O)N[C@H](C(=O)N[C@@H](Cc1ccc(O)cc1)C(=O)N1CCC[C@H]1C(=O)N[C@@H](CCCNC(=N)N)C(=O)N[C@H](C(=O)NCC(=O)N[C@H](C(=O)NCC(=O)N[C@@H](CO)C(=O)NCC(=O)N[C@H](C(=O)N[C@@H](Cc1ccc(O)cc1)C(N)=O)[C@@H](C)O)[C@@H](C)O)[C@@H](C)O)[C@@H](C)O
- hAmylin-R funct. EC50 (pM) [1]: 66 pM
- hCTR funct. EC50 (pM) [2]: 56 pM
